The text below walks through data of article PMC6445123 (Scientific Reports, 2019).

Positions count from the first letter of the chain named. In names and notes the source's numbering stands. Marks after values point to notes of the source that are not given here.

The target in data set [1] is T1, recombinant active Casp6 (Casp6-WT) (Homo sapiens, UniProt P55212, INS179NQTEKLDTNITEVD).
T1 construct: generating mainly large subunit with a linker (LS-L), small subunit (SS), and a minor amount of large subunit (LS); His (C); made in house; host or cells: E. coli BL21(DE3)pLysS
T1 sequence (P55212 24-193 limits assumed): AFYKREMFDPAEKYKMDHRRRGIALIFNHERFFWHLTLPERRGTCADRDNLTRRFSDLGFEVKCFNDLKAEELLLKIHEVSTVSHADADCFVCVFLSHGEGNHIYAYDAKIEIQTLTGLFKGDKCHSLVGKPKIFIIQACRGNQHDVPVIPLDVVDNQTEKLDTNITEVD
T1 sequence (P55212 194-293 limits assumed): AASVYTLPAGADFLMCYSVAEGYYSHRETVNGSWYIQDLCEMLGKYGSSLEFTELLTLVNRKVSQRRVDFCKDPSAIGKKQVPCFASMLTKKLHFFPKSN
Kind of data set: Fluorescence-based Ac-VEID-AFC cleavage assay (Casp6 activity, IC50 determination). The class given is biochemical. The note with it: for % Inhibition with 100 µM compound (fluorescence assay) / IC50: 10 µM Ac-VEID-AFC; for % Inhibition with 100 µM compound (fluorescence assay): 20 nM Casp6, relative to 1% DMSO control; for fold increase in IC50 (reduction in potency) compared to C13: Casp6-WT; for IC50: fluorescence assay, 20 nM Casp6 active sites, read-out: IC50. The method, then:
To assess the potency of in silico hits, a fluorescence-based Ac-VEID-AFC cleavage assay was used to measure recombinant active Casp6 reaction rate in the absence or presence of 100 µM concentration of compounds. A 30% inhibition cut off was arbitrarily chosen for further investigation of putative inhibitors. […] AFC signal interference by compound intrinsic fluorescence was ruled out (Fig. S4). Casp6 inhibition was confirmed for seven compounds (C7, C13, C14, S2, S10, S11 and S13) using a colorimetric Ac-VEID-pNA cleavage assay (Table 2, Fig. S3).
(§1) Casp6 active sites were quantified using zVAD-FMK (N-benzyloxycarbonyl-Val-Ala-Asp-(O-methyl)-fluoromethylketone, MP Biomedicals, Santa Ana, CA, USA)[51],[64]. Casp6 activity was measured in Stennicke’s buffer (SB: 20 mM piperazine-N,N′-bis-(2-ethanesulfonic acid) pH 7.2, 100 mM NaCl, 10 mM DTT, 1 mM EDTA, 0.1% 3-[(3-cholamidopropyl)-dimethylammonio]-2-hydroxy-1-propanesulfonic acid, 10% sucrose)[65] using 40 µM Ac-VEID-AFC (Ac-Val-Glu-Ile-Asp-7-Amino-4-trifluoromethylcoumarin, Enzo Life Sciences, Farmingdale, NY, USA)[64] and 10-250 nM active site titrated Casp6. Reactions were initiated by Ac-VEID-AFC addition and followed for 20 min at 37 °C in a black clear bottom 96-well microplate (Costar, Corning, NY, USA) in Synergy H4 Hybrid instrument (BioTek, Winooski, VT, USA) with excitation/emission at 380/505 nm. Released AFC was calculated from AFC standard curve (0-25 µM). Casp6 VEIDase activity (released pmol AFC/min) was calculated from the initial linear reaction part. Ac-VEID-AFC hydrolysis initial velocities were measured with 10 nM active-site titrated Casp6 and […] Ac-VEID-AFC. Initial velocities v versus substrate concentration [S] were fit to a rectangular hyperbola using Michaelis-Menten equation in GraphPad Prism 5 (GraphPad Software, La Jolla, CA, USA).
In fluorescence-based Casp6 activity assay, 10 µM Ac-VEID-AFC was added to 20 nM Casp6 in SB with 100 μM compound and 1% dimethyl sulfoxide (DMSO), and reaction rate was measured for 20 min at 37 °C as above. Compound potency was calculated by normalising Ac-VEID-AFC cleavage rate to 1% DMSO control. In colorimetric Casp6 activity assay, 200 µM Ac-VEID-pNA (N-acetyl-Val-Glu-Ile-Asp-p-nitroanilide, Enzo Life Sciences) was added to 200 nM Casp6 in SB with 100 μM compound, and Ac-VEID-pNA cleavage rate was measured at 37 °C for 30 min in clear 96-well plate (Sartstedt, Nümbrecht, Germany) using Synergy H4 plate reader at 405 nm. Absorbance was converted to the released pNA amount based on a standard curve of 0–250 µM pNA. Cleavage rates were calculated from the linear assay phase and were normalised to 1% DMSO control. In Casp6-C163A cleavage assay, 0.5 ng/µl Casp6-WT was preincubated with 100 µM inhibitor, 5 µM Q-VD-OPh or 1% DMSO in SB (30 min, RT), followed by transfer on ice, addition of 0.5 µg/µl Casp6-C163A, and incubation (37 °C, 5, 10 and 15 min). Reactions were stopped by adding SDS-PAGE sample buffer (62.5 mM Tris pH 6.8, 2% SDS, 0.1 M DTT, 0.01% Bromphenol Blue, 10% glycerol) and heating (5 min, 95 °C). Samples (2 µl) were analysed on 15% SDS-PAGE gels, proteins were stained with Coomassie blue, and gels were de-stained with 10% acetic acid. The intensities of protein bands were quantified from scanned gels using ImageJ. The band intensity of Casp6-C163A without a prodomain was plotted against the time and the Casp6-C163A cleavage rates were calculated from the slopes of linear plots. The % activity of Casp6-WT in the presence of inhibitors was calculated relative to DMSO control.
IC50 values were determined against 20 nM Casp6 active sites in fluorescence-based Casp6 activity assay with 10 µM Ac-VEID-AFC and 1 nM-500 µM inhibitor. IC50 was calculated with GraphPad Prism 5 by a nonlinear regression fit for log inhibitor vs relative Casp6 activity (% DMSO control) using a Hill slope of – 1, and top and bottom constraints of 100 and 0, respectively.

A short description of data set [2]: Ac-VEID-AFC hydrolysis kinetics of recombinant Casp6 variants (Michaelis-Menten). The class given is biochemical, human. The note with it: for Km / kcat: Ac-VEID-AFC hydrolysis, mean ± SD.
Excerpt: In this study, we investigated how naturally occurring rare missense variants of human CASP6 affect Casp6 activity and structure. […] A34, E35, A109, and T182 are not conserved in 12 human caspases and in Casp6 from different species (Fig. 1a,b). Recombinant Casp6-WT and the four variants were expressed in E. coli, purified, and active site titrated (Fig. S2) for functional analyses. Like Casp6-WT, Casp6 variants, underwent complete self-processing at TETD23, and TEVD193 sites, and slight self-cleavage at the DVVD179 site, generating mainly large subunit with a linker (LS-L), small subunit (SS), and a minor amount of large subunit (LS) (Fig. 1c,d).
as §1

For `COC(=O)c1cc(CN)cc(NC(=O)c2ccco2)c1` [Compound C13B], in data set [1], the “potency against Casp6 (in words)” value is on record as “low potency” and the “% Inhibition with 100 µM compound (fluorescence assay)” value (“% Inhibition with 100 µM compound” below) is 2.3 ± 3.1^a %.
Regarding `COC(=O)c1cc(CNC(=O)c2c(-c3ccccc3)noc2C)cc(NC(=O)c2ccco2)c1` [Compound C13D], in data set [1], the “% Inhibition with 100 µM compound” value is recorded as 5.5 ± 4.1^a % and the “fold increase in IC50 (reduction in potency) compared to C13” value was 155 fold.
As for `COC(=O)c1cc(CNC(=O)C(C)(C)C)cc(NC(=O)c2ccco2)c1` [Compound C13E], in data set [1], the “potency against Casp6 (in words)” value is reported as “low potency” and the “% Inhibition with 100 µM compound” value was −8.3 ± 1.7^a %.
With `COC(=O)c1cc(CNC(=O)C2(c3ccc(Cl)cc3)CCC2)cc(NC(=O)c2ccco2)c1` [Compound C13F], in data set [1], the “% Inhibition with 100 µM compound” value was 43.2 ± 10.9^a %, the “fold increase in IC50 (reduction in potency) compared to C13” value amounted to 2 fold and the IC50 (usually the concentration that gives 50% inhibition) worked out at 27 ± 1.6 µM.
For the molecule `COC(=O)c1cc(CNC(=O)c2cc(C)cc(C)c2)cc(NC(=O)c2ccco2)c1` [Compound C13G], in data set [1], the “% Inhibition with 100 µM compound” value was 55.5 ± 8.8^a %, the “fold increase in IC50 (reduction in potency) compared to C13” value is recorded as 2 fold and the 50% inhibitory concentration (IC50) amounted to 21.5 ± 2 µM. Moreover, the “potency for Casp6 of in-house synthesised compound compared to commercial compound” value in data set [1] (synthesised in the authors' laboratory vs commercial source) was “lower potency”.

B1: Casp6-E35K: recombinant rare natural human Casp6 missense variant E35K (protein)
chain 1: T1 sequence (P55212 24-193 limits assumed) with E12K
chain 2: T1 sequence (P55212 194-293 limits assumed)
modifications: left off: His (from the plasmid name pET23b-Casp6-His), end not stated, state not stated
For B1, in data set [2], the “fold reduced catalytic efficiency kcat/KM compared with Casp6-WT” value is on record as ~ 2 fold; the Km (as a rule, the substrate concentration at which the rate is half of its maximum) came out at 37.1 ± 4.9 µM; the kcat (as a rule, the maximal rate divided by the concentration of active sites) stood at 1.71 ± 0.13 s⁻¹.

B2: Casp6-A109T: recombinant rare natural human Casp6 missense variant A109T (protein)
chain 1: T1 sequence (P55212 24-193 limits assumed) with A86T
chain 2: T1 sequence (P55212 194-293 limits assumed)
modifications: left off: His (from the plasmid name pET23b-Casp6-His), end not stated, state not stated
B2: in data set [2], the Km amounted to 34.5 ± 1.8 µM and the kcat worked out at 2.51 ± 0.16 s⁻¹.

B3: Casp6-L200A: Casp6 L200A alanine mutant from full-length construct, poorly self-processed (protein, UniProt P55212 1-293, looked up, variant L200A)
chain: MSSASGLRRGHPAGGEENMTETDAFYKREMFDPAEKYKMDHRRRGIALIFNHERFFWHLTLPERRGTCADRDNLTRRFSDLGFEVKCFNDLKAEELLLKIHEVSTVSHADADCFVCVFLSHGEGNHIYAYDAKIEIQTLTGLFKGDKCHSLVGKPKIFIIQACRGNQHDVPVIPLDVVDNQTEKLDTNITEVDAASVYTAPAGADFLMCYSVAEGYYSHRETVNGSWYIQDLCEMLGKYGSSLEFTELLTLVNRKVSQRRVDFCKDPSAIGKKQVPCFASMLTKKLHFFPKSN
modifications: full-length
notes: Casp6 L200A alanine mutant from full-length construct, poorly self-processed
On to B3, for which, in data set [2], the “fold higher KM compared to Casp6-WT or Casp6-WT-LS-SS” value was found to be 10 fold, the “fold reduction in kcat compared to Casp6-WT” value was 45 fold, the Michaelis constant (Km) was determined as 316 ± 162 µM and the kcat was 0.05 ± 0.03 s⁻¹.

B4: Casp6-K284A-LS-SS: fully processed Casp6 K284A from co-expression of large and small subunits (protein, UniProt P55212 1-293, looked up, variant K284A)
chain: B3 chain with A200L, K284A
B4: in data set [2], the Km is 27.7 ± 2.7 µM and the kcat came out at 2.8 ± 0.2 s⁻¹.

B5: Casp6-L200A-LS-SS: fully processed Casp6 L200A from co-expression of large and small subunits (protein, UniProt P55212 1-293, looked up, variant L200A)
chain: B3 chain
Turning to B5, in data set [2], the “fold higher KM compared to Casp6-WT or Casp6-WT-LS-SS” value amounted to 8 fold, the Km is 196 ± 84.4 µM and the kcat was 2.8 ± 0.8 s⁻¹.

B6: Casp6-WT: recombinant wild-type human Casp6 expressed in E. coli from full-length construct (protein, UniProt P55212 1-293, looked up)
chain: B3 chain with A200L
modifications: full-length
notes: recombinant wild-type human Casp6 expressed in E. coli from full-length construct
Consider B6, for which, in data set [2], the Michaelis-Menten constant (Km) amounted to 31.2 ± 6.7 µM and the kcat worked out at 2.27 ± 0.30 s⁻¹.

B7: Casp6-A34E: recombinant rare natural human Casp6 missense variant A34E (protein, UniProt P55212 1-293, looked up, variant A34E)
chain: B3 chain with A34E, A200L
On to B7, for which, in data set [2], the Km amounted to 22.7 ± 0.8 µM and the kcat came to 2.04 ± 0.10 s⁻¹.
